Experimental data published in patent US20250326817A1 (LA JOLLA INSTITUTE FOR IMMUNOLOGY, published 2025).

T1: mouse BTLA, full length, fused to EGFP, on HEK293 FreeStyle cells (mouse, UniProt Q7TSA3 30-306)
T1 construct: whole, on cells; also called mBTLA; mBTLA-EGFP; not shown: EGFP fused at the C-terminus (pEGFP-N1 vector)
T1 sequence (looked up): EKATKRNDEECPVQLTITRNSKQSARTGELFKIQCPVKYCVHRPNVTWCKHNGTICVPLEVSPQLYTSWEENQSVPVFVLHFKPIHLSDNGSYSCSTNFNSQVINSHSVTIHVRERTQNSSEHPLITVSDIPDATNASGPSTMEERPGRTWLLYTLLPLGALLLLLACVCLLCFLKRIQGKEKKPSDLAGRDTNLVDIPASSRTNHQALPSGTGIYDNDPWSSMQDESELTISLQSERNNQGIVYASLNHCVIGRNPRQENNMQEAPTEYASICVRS

T2: mouse LIGHT, full length, on transfected cells (mouse, UniProt Q9QYH9 1-239)
T2 construct: whole, on cells; also called mLIGHT; mLIGHT-IRES-EGFP
T2 sequence (looked up): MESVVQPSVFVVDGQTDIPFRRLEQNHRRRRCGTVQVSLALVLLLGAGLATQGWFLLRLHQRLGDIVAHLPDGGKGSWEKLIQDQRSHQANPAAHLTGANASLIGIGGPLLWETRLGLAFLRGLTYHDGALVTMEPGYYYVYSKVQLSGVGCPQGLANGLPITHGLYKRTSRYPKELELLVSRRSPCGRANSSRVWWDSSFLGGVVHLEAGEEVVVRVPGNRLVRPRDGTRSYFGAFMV

T3: mouse CD160 residues I30-H154 with C-terminal …, refolded from E. coli inclusion bodies (mouse, UniProt O88875 30-154, biotin (mCD160-biotin in the cell staining assay; site not stated))
T3 construct: range 30-154; also called mCD160; mCD160-biotin
T3 sequence: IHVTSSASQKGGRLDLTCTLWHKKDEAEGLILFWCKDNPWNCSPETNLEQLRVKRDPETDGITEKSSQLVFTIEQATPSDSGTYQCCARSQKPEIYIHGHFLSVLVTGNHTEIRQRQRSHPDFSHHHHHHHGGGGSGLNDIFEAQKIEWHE

T4: mouse BTLA, soluble protein (analyte of the Octet assay) (mouse, UniProt Q7TSA3 30-183, limits assumed)
T4 construct: The construct is not described; also called mBTLA; mBTLA-penta-His-tag
T4 sequence (looked up): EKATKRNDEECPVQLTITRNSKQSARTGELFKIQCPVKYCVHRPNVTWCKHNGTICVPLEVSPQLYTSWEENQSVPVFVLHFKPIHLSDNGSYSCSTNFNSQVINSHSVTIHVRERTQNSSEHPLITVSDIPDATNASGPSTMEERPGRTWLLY


How the values were obtained:
[1] = biological target: T1, mouse BTLA, full length, fused to EGFP, …; test: cell-cell flow cytometry (mHVEM-mCherry cells + mBTLA-EGFP cells)
Experimental: (§1) After 2˜3 days, the cells were harvested and diluted to […]. […] These cells were further recorded and analyzed by flow cytometry. […] The cells were incubated for 30 min with shaking at room temperature and washed once by PBS containing 0.2% BSA (PBS-BSA). The cells were re-suspended in 100 uL of PBS-BSA and analyzed by flow cytometry.

[2] = biological target: T2, mouse LIGHT, full length, on …; test: cell-cell flow cytometry (mHVEM-mCherry cells + mLIGHT-IRES-EGFP cells)
Experimental: as §1

[3] = biological target: T3, mouse CD160 residues I30-H154 with …; test: cell-protein flow cytometry (mHVEM-mCherry cells + mCD160-biotin/streptavidin-AF488)
Experimental: as §1

[4] = biological target: T4, mouse BTLA, soluble protein (analyte of …); test: cell-protein flow cytometry (mHVEM-mCherry cells + mBTLA-His/anti-His green)
Experimental: as §1

binding result [1] | binding result [2] | binding result [3] | binding result [4] | Binder
binds | binds | – | – | mouse HVEM, wild type, full length, fused to mCherry, on HEK293 FreeStyle cells (receptor, also called mHVEM; WT mHVEM; not shown: mCherry fused at the C-terminus (pmCherry-N1 vector)) QPSCRQEEFLVGDECCPMCNPGYHVKQVCSEHTGTVCAPCPPQTYTAHANGLSKCLPCGVCDPDMGLLTWQECSSWKDTVCRCIPGYFCENQDGSHCSTCLQHTTCPPGQRVEKRGTHDQDTVCADCLTGTFSLGGTQEECLPWTNCSAFQQEVRRGTNSTDTTCSSQVVYYVVSILLPLVIVGAGIAGFLICTRRHLHTSSVAKELEPFQEQQENTIRFPVTEVGFAETEEETASN
binds | no binding | binds | – | H86D-L90R (receptor, on HEK293 FreeStyle cells; also called mHVEM H86D-L90R; not shown: mCherry reporter (and any vector linker) fused at the cytoplasmic C-terminus (pmCherry-N1)) QPSCRQEEFLVGDECCPMCNPGYHVKQVCSEHTGTVCAPCPPQTYTADANGRSKCLPCGVCDPDMGLLTWQECSSWKDTVCRCIPGYFCENQDGSHCSTCLQHTTCPPGQRVEKRGTHDQDTVCADCLTGTFSLGGTQEECLPWTNCSAFQQEVRRGTNSTDTTCSSQVVYYVVSILLPLVIVGAGIAGFLICTRRHLHTSSVAKELEPFQEQQENTIRFPVTEVGFAETEEETASN
binds | no binding | binds | – | H86R-L90A (receptor, on HEK293 FreeStyle cells; also called mHVEM H86R-L90A; not shown: mCherry reporter (and any vector linker) fused at the cytoplasmic C-terminus (pmCherry-N1)) QPSCRQEEFLVGDECCPMCNPGYHVKQVCSEHTGTVCAPCPPQTYTARANGASKCLPCGVCDPDMGLLTWQECSSWKDTVCRCIPGYFCENQDGSHCSTCLQHTTCPPGQRVEKRGTHDQDTVCADCLTGTFSLGGTQEECLPWTNCSAFQQEVRRGTNSTDTTCSSQVVYYVVSILLPLVIVGAGIAGFLICTRRHLHTSSVAKELEPFQEQQENTIRFPVTEVGFAETEEETASN
no binding | binds | no binding | no binding | G72D-V74A (receptor, on HEK293 FreeStyle cells; also called mHVEM G72D-V74A; not shown: mCherry reporter (and any vector linker) fused at the cytoplasmic C-terminus (pmCherry-N1)) QPSCRQEEFLVGDECCPMCNPGYHVKQVCSEHTDTACAPCPPQTYTAHANGLSKCLPCGVCDPDMGLLTWQECSSWKDTVCRCIPGYFCENQDGSHCSTCLQHTTCPPGQRVEKRGTHDQDTVCADCLTGTFSLGGTQEECLPWTNCSAFQQEVRRGTNSTDTTCSSQVVYYVVSILLPLVIVGAGIAGFLICTRRHLHTSSVAKELEPFQEQQENTIRFPVTEVGFAETEEETASN
binds | no binding | binds | – | H86A-L90A (receptor, on HEK293 FreeStyle cells; also called mHVEM H86A-L90A; not shown: mCherry reporter (and any vector linker) fused at the cytoplasmic C-terminus (pmCherry-N1)) QPSCRQEEFLVGDECCPMCNPGYHVKQVCSEHTGTVCAPCPPQTYTAAANGASKCLPCGVCDPDMGLLTWQECSSWKDTVCRCIPGYFCENQDGSHCSTCLQHTTCPPGQRVEKRGTHDQDTVCADCLTGTFSLGGTQEECLPWTNCSAFQQEVRRGTNSTDTTCSSQVVYYVVSILLPLVIVGAGIAGFLICTRRHLHTSSVAKELEPFQEQQENTIRFPVTEVGFAETEEETASN
binds | – | binds | – | mouse HVEM H86D-L90A double mutein, full length, fused to mCherry, on cells (receptor, also called mHVEM H86D-L90A; mHVEM^-LIGHT; not shown: mCherry fused at the C-terminus (pmCherry-N1 vector)) QPSCRQEEFLVGDECCPMCNPGYHVKQVCSEHTGTVCAPCPPQTYTADANGASKCLPCGVCDPDMGLLTWQECSSWKDTVCRCIPGYFCENQDGSHCSTCLQHTTCPPGQRVEKRGTHDQDTVCADCLTGTFSLGGTQEECLPWTNCSAFQQEVRRGTNSTDTTCSSQVVYYVVSILLPLVIVGAGIAGFLICTRRHLHTSSVAKELEPFQEQQENTIRFPVTEVGFAETEEETASN
– | – | – | no binding | mouse HVEM R43D-M56A-K64D triple mutation, full length, fused to mCherry, on cells (receptor, also called mHVEM R43D-M56A-K64D; not shown: mCherry fused at the C-terminus (pmCherry-N1 vector)) QPSCDQEEFLVGDECCPACNPGYHVDQVCSEHTGTVCAPCPPQTYTAHANGLSKCLPCGVCDPDMGLLTWQECSSWKDTVCRCIPGYFCENQDGSHCSTCLQHTTCPPGQRVEKRGTHDQDTVCADCLTGTFSLGGTQEECLPWTNCSAFQQEVRRGTNSTDTTCSSQVVYYVVSILLPLVIVGAGIAGFLICTRRHLHTSSVAKELEPFQEQQENTIRFPVTEVGFAETEEETASN
binds | binds | – | – | mouse HVEM A76D, full length, fused to mCherry, on cells (receptor, also called mHVEM A76D; not shown: mCherry fused at the C-terminus (pmCherry-N1 vector)) QPSCRQEEFLVGDECCPMCNPGYHVKQVCSEHTGTVCDPCPPQTYTAHANGLSKCLPCGVCDPDMGLLTWQECSSWKDTVCRCIPGYFCENQDGSHCSTCLQHTTCPPGQRVEKRGTHDQDTVCADCLTGTFSLGGTQEECLPWTNCSAFQQEVRRGTNSTDTTCSSQVVYYVVSILLPLVIVGAGIAGFLICTRRHLHTSSVAKELEPFQEQQENTIRFPVTEVGFAETEEETASN
no binding | binds | no binding | no binding | G72A-V74D (receptor, on HEK293 FreeStyle cells; also called mHVEM G72A-V74D; not shown: mCherry reporter (and any vector linker) fused at the cytoplasmic C-terminus (pmCherry-N1)) QPSCRQEEFLVGDECCPMCNPGYHVKQVCSEHTATDCAPCPPQTYTAHANGLSKCLPCGVCDPDMGLLTWQECSSWKDTVCRCIPGYFCENQDGSHCSTCLQHTTCPPGQRVEKRGTHDQDTVCADCLTGTFSLGGTQEECLPWTNCSAFQQEVRRGTNSTDTTCSSQVVYYVVSILLPLVIVGAGIAGFLICTRRHLHTSSVAKELEPFQEQQENTIRFPVTEVGFAETEEETASN
no binding | binds | no binding | no binding | G72D-V74R (receptor, on HEK293 FreeStyle cells; also called mHVEM G72D-V74R; not shown: mCherry reporter (and any vector linker) fused at the cytoplasmic C-terminus (pmCherry-N1)) QPSCRQEEFLVGDECCPMCNPGYHVKQVCSEHTDTRCAPCPPQTYTAHANGLSKCLPCGVCDPDMGLLTWQECSSWKDTVCRCIPGYFCENQDGSHCSTCLQHTTCPPGQRVEKRGTHDQDTVCADCLTGTFSLGGTQEECLPWTNCSAFQQEVRRGTNSTDTTCSSQVVYYVVSILLPLVIVGAGIAGFLICTRRHLHTSSVAKELEPFQEQQENTIRFPVTEVGFAETEEETASN
no binding | binds | no binding | no binding | G72D-V74D (receptor, on HEK293 FreeStyle cells; also called mHVEM G72D-V74D; not shown: mCherry reporter (and any vector linker) fused at the cytoplasmic C-terminus (pmCherry-N1)) QPSCRQEEFLVGDECCPMCNPGYHVKQVCSEHTDTDCAPCPPQTYTAHANGLSKCLPCGVCDPDMGLLTWQECSSWKDTVCRCIPGYFCENQDGSHCSTCLQHTTCPPGQRVEKRGTHDQDTVCADCLTGTFSLGGTQEECLPWTNCSAFQQEVRRGTNSTDTTCSSQVVYYVVSILLPLVIVGAGIAGFLICTRRHLHTSSVAKELEPFQEQQENTIRFPVTEVGFAETEEETASN
binds | no binding | binds | – | H86D-L90D (receptor, on HEK293 FreeStyle cells; also called mHVEM H86D-L90D; not shown: mCherry reporter (and any vector linker) fused at the cytoplasmic C-terminus (pmCherry-N1)) QPSCRQEEFLVGDECCPMCNPGYHVKQVCSEHTGTVCAPCPPQTYTADANGDSKCLPCGVCDPDMGLLTWQECSSWKDTVCRCIPGYFCENQDGSHCSTCLQHTTCPPGQRVEKRGTHDQDTVCADCLTGTFSLGGTQEECLPWTNCSAFQQEVRRGTNSTDTTCSSQVVYYVVSILLPLVIVGAGIAGFLICTRRHLHTSSVAKELEPFQEQQENTIRFPVTEVGFAETEEETASN
binds | no binding | – | – | A76D_H86D_L90D (receptor, on HEK293 FreeStyle cells; also called mHVEM A76D-H86D-L90D; not shown: mCherry fused at the C-terminus (pmCherry-N1 vector)) QPSCRQEEFLVGDECCPMCNPGYHVKQVCSEHTGTVCDPCPPQTYTADANGDSKCLPCGVCDPDMGLLTWQECSSWKDTVCRCIPGYFCENQDGSHCSTCLQHTTCPPGQRVEKRGTHDQDTVCADCLTGTFSLGGTQEECLPWTNCSAFQQEVRRGTNSTDTTCSSQVVYYVVSILLPLVIVGAGIAGFLICTRRHLHTSSVAKELEPFQEQQENTIRFPVTEVGFAETEEETASN
binds | no binding | no binding | – | A76D_H86D_L90A (receptor, on HEK293 FreeStyle cells; also called mHVEM A76D-H86D-L90A; not shown: mCherry fused at the C-terminus (pmCherry-N1 vector) and any vector linker) QPSCRQEEFLVGDECCPMCNPGYHVKQVCSEHTGTVCDPCPPQTYTADANGASKCLPCGVCDPDMGLLTWQECSSWKDTVCRCIPGYFCENQDGSHCSTCLQHTTCPPGQRVEKRGTHDQDTVCADCLTGTFSLGGTQEECLPWTNCSAFQQEVRRGTNSTDTTCSSQVVYYVVSILLPLVIVGAGIAGFLICTRRHLHTSSVAKELEPFQEQQENTIRFPVTEVGFAETEEETASN
